This passage reports OD and % Inhibition results from patent US20110014117A1.

Assay [1] addresses recombinant human soluble IGF1R fragment (R&D Systems) (human). Kind of assay: competitive ELISA on coated sIGF1R fragment, competitor biotinylated 19D12 LCF/HCA; antibody at 0.007813 ug/ml. (In an ELISA, binding on a coated surface is turned into a signal by an enzyme label.)
The target is the same in assay [2]. Kind of assay: competitive ELISA on coated sIGF1R fragment, inhibition of biotinylated 19D12 LCF/HCA binding; antibody at 0.25 ug/ml.
The target is the same in assay [3]. The experiment in a line: competitive ELISA on coated sIGF1R fragment, competitor biotinylated 19D12 LCF/HCA; antibody at 0.03125 ug/ml.
Assay [4] shares this target. Kind of assay: competitive ELISA on coated sIGF1R fragment, inhibition of biotinylated 19D12 LCF/HCA binding; antibody at 0.015625 ug/ml.
Assay [5] shares this target. The experiment in a line: competitive ELISA on coated sIGF1R fragment, competitor biotinylated 19D12 LCF/HCA; antibody at 4 ug/ml.
For assay [6] the target is unchanged. The experiment in a line: competitive ELISA on coated sIGF1R fragment, inhibition of biotinylated 19D12 LCF/HCA binding; antibody at 8 ug/ml.
For assay [7] the target is unchanged. The experiment in a line: competitive ELISA on coated sIGF1R fragment, inhibition of biotinylated 19D12 LCF/HCA binding; antibody at 1 ug/ml.
Assay [8] has the same target. Kind of assay: competitive ELISA on coated sIGF1R fragment, inhibition of biotinylated 19D12 LCF/HCA binding; antibody at 0.125 ug/ml.
For assay [9] the target is unchanged. The experiment in a line: competitive ELISA on coated sIGF1R fragment, competitor biotinylated 19D12 LCF/HCA; antibody at 0.125 ug/ml.
Assay [10] shares this target. Kind of assay: competitive ELISA on coated sIGF1R fragment, inhibition of biotinylated 19D12 LCF/HCA binding; antibody at 0.007813 ug/ml.
The target is the same in assay [11]. The experiment in a line: competitive ELISA on coated sIGF1R fragment, competitor biotinylated 19D12 LCF/HCA; antibody at 2 ug/ml.
The target is the same in assay [12]. Kind of assay: competitive ELISA on coated sIGF1R fragment, competitor biotinylated 19D12 LCF/HCA; antibody at 0.25 ug/ml.
Assay [13] has the same target. The experiment in a line: competitive ELISA on coated sIGF1R fragment, competitor biotinylated 19D12 LCF/HCA; antibody at 0.015625 ug/ml.
For assay [14] the target is unchanged. Kind of assay: competitive ELISA on coated sIGF1R fragment, competitor biotinylated 19D12 LCF/HCA; antibody at 0.0625 ug/ml.
Assay [15] shares this target. Kind of assay: competitive ELISA on coated sIGF1R fragment, inhibition of biotinylated 19D12 LCF/HCA binding; antibody at 0.03125 ug/ml.
The target is the same in assay [16]. Kind of assay: competitive ELISA on coated sIGF1R fragment, inhibition of biotinylated 19D12 LCF/HCA binding; antibody at 4 ug/ml.
Assay [17] has the same target. Kind of assay: competitive ELISA on coated sIGF1R fragment, competitor biotinylated 19D12 LCF/HCA; antibody at 1 ug/ml.
Assay [18] has the same target. Kind of assay: competitive ELISA on coated sIGF1R fragment, competitor biotinylated 19D12 LCF/HCA; antibody at 8 ug/ml.
Assay [19] has the same target. The experiment in a line: competitive ELISA on coated sIGF1R fragment, inhibition of biotinylated 19D12 LCF/HCA binding; antibody at 0.5 ug/ml.
Assay [20] shares this target. The experiment in a line: competitive ELISA on coated sIGF1R fragment, inhibition of biotinylated 19D12 LCF/HCA binding; antibody at 2 ug/ml.
For assay [21] the target is unchanged. The experiment in a line: competitive ELISA on coated sIGF1R fragment, competitor biotinylated 19D12 LCF/HCA; antibody at 0.5 ug/ml.
The target is the same in assay [22]. Kind of assay: competitive ELISA on coated sIGF1R fragment, inhibition of biotinylated 19D12 LCF/HCA binding; antibody at 0.0625 ug/ml.

Broadly, the % Inhibition is the change of the read-out against control, counted positive when it falls.

anti-IGF1R antibody 19D12 LCF/HCA: the OD in assay [1] was 1.23 OD; in [3] it was 1.1 OD; in assay [5], -0.0025 OD; in [9] it was 0.443 OD; in [11], -0.0025 OD; in assay [12], 0.169 OD. Further, the OD in assay [13] was 1.25 OD; in assay [14], 1 OD; in assay [17] it was 0.001 OD; in assay [18], -0.0045 OD; in assay [21], 0.021 OD. Also, the % Inhibition in [2] turned out to be 86.8%; in assay [4] it was 2.33%; in [6] it was 100%; in [7], 99.9%; in [8], 65.3%; in [10] it was 4.05%. The % Inhibition turned out to be 13.8% in assay [15]; 100% in [16]; 98.4% in assay [19]; 100% in assay [20]; 21.7% in [22].

In the case of “commercially available anti-IGF1R antibody MAB391”, the OD in [1] was found to be 1.31 OD; in assay [3] it was 1.41 OD; in [5], 0.0725 OD; in assay [9], 1.16 OD; in assay [11] it was 0.163 OD; in assay [12], 0.981 OD. For the same substance, the OD in assay [13] came out at 1.25 OD; in [14], 1.24 OD; in [17], 0.355 OD; in assay [18] it was 0.045 OD; in assay [21], 0.628 OD. The % Inhibition is 23.3% in assay [2]; 1.9% in [4]; 96.5% in assay [6]; 72.2% in [7]; 9.61% in assay [8]; -2.16% in assay [10]. For the same substance, the % Inhibition in assay [15] was -10.1%; in assay [16] it was 94.3%; in [19] it was 50.9%; in assay [20], 87.2%; in assay [22], 2.69%.
